Data from article PMC3538848.

Experiments:
[1] = target: A/Perth/16/2009 (H3N2) hemagglutinin ectodomain (influenza A virus A/Perth/16/2009 (H3N2)); experiment: negative-stain EM, single-particle 3D reconstruction
[2] = target: A/Solomon Islands/3/2006 (H1N1) hemagglutinin ectodomain (influenza A virus A/Solomon Islands/3/2006 (H1N1)); experiment: as above
[3] = target: A/Panama/2007/1999 (H3N2) hemagglutinin ectodomain (influenza A virus A/Panama/2007/1999 (H3N2)); experiment: BLI
[4] = target: A/Perth/16/2009 (H3N2) hemagglutinin ectodomain (influenza A virus A/Perth/16/2009 (H3N2)); experiment: BLI
[5] = target: A/Brisbane/10/2007 (H3N2) hemagglutinin ectodomain (influenza A virus A/Brisbane/10/2007 (H3N2)); experiment: BLI
[6] = target: A/Panama/2007/1999 (H3N2) hemagglutinin ectodomain (influenza A virus A/Panama/2007/1999 (H3N2)); experiment: ITC
[7] = target: A/Perth/16/2009 (H3N2) hemagglutinin ectodomain (influenza A virus A/Perth/16/2009 (H3N2)); experiment: ITC
[8] = target: A/Brisbane/10/2007 (H3N2) hemagglutinin ectodomain (influenza A virus A/Brisbane/10/2007 (H3N2)); experiment: ITC
[9] = target: A/Texas/36/1991 (H1N1) hemagglutinin ectodomain (influenza A virus A/Texas/36/1991 (H1N1))

## C05 Fab (Lys-C digestion of IgG)
[1]
  stoichiometry N: 3
[2]
  stoichiometry N: 3

## C05 Fab (recombinant, for binding studies)
[3]
  Kd: 0.72 µM
[4]
  Kd: 0.018 µM
[5]
  Kd: > 5 µM
[6]
  Kd: 0.225 µM
[7]
  Kd: 0.026 µM
[8]
  Kd: 10 µM

## C05 IgG (antibody)
[9]
  MIC, hemagglutination inhibition (HAI): > 100 µg/mL
